Tests used:
[1] = molecular target: DR4-Ig (death receptor 4 / TRAIL-R1, Ig fusion protein) (UniProt O00220)
[2] = molecular target: rhTRAIL-C3 (TRAIL G131R/N199R/K201H mutant) (human) (UniProt P50591); experiment: SEC
[3] = molecular target: DR4-Ig (death receptor 4 / TRAIL-R1, Ig fusion protein) (UniProt O00220); remark: listed apart in the source

Chain of UniProt O00220 (O00220 24-239): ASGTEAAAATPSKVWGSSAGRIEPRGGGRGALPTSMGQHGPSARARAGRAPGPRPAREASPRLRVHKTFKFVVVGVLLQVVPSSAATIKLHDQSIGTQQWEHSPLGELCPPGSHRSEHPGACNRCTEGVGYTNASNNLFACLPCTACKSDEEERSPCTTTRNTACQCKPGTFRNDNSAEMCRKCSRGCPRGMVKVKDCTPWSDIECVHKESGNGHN

stoichiometry N [2]: 3
Substance: rhTRAIL-C3 (TRAIL G131R/N199R/K201H mutant) (from UniProt P50591 1-281) (ligand)
ED50 of apoptosis induction (annexin V) in DR4-responsive EM-2 cells, 24 hrs [1]: 3.78 ng/mL
level of cell death in HL-60 cells (100 ng/ml, TMRE, 12 hrs) [3]: 67%

From article PMC4394230
